Data: patent publication US11191841B2, “Supramolecular modification of proteins” (Massachusetts Institute of Technology, priority 2015, dated 2021)

Columns and labels:
[1] = Insulin aggregation assay (transmittance at 540 nm); type: physicochemical; conditions: insulin 1 mg/mL, pH 7.4, 37° C., continuous agitation
Description: Insulin is well known to form fibrillar aggregates in physiologic conditions. To determine whether PEG-T-CB[7] can stabilize insulin and prevent its aggregation, assays were performed in physiologic salt concentrations at pH 7.4 and 37° C. with continuous agitation to determine the kinetics of insulin aggregation in a solution of 1 mg/mL protein (FIG. 3A). Specifically, transmittance was measured at 540 nm, a wavelength where both insulin and the PEG-T-CB[7] have negligible absorbance in order to detect the formation of aggregates, which scatter light, in solution over time. […] After the initial 100 h study, data were collected once daily to determine the duration of stability for each PEG-T-CB[7]/insulin formulation (FIG. 3B).
Recombinant human insulin was dissolved at 4 mg/ml in 2 mM HCl with 150 mM NaCl. […] The plate was immediately placed into an Infinite® M1000 plate reader (Tecan Group, Ltd.) and shaken continuously at 37° C. Absorbance readings at 540 nm were collected every 6 minutes for 100 hours, and absorbance values were subsequently converted to transmittance. […] Following the 100-hour kinetic study, the plate was maintained under continuous agitation at 37° C. and absorbance at 540 nm was monitored daily to approximate tA for the PEG-T-CB[7] conjugates.

[2] = system: STZ-induced diabetic mice; test: In vivo blood glucose in STZ diabetic mice; design: species or system mouse; conditions: insulin 1 IU/kg s.c., alone or with 5 molar equivalents host; normoglycemia <200 mg/dL; 6-hour study
Description: A mouse model of insulin-deficient diabetes, prepared using streptozotocin to induce pancreatic ß-cell death, was used to evaluate the function of PEG-T-CB[7] conjugates in vivo (FIG. 4A). Following the onset of diabetes, mice were fasted overnight to ensure an average starting blood glucose level of approximately 450 mg/dL. See, e.g., Like et al. Science 1976, 193(4251): 415-417. Insulin was then administered subcutaneously at a dose of 1 IU/kg in a saline vehicle. Alternatively, an identical dose of insulin was administered along with CB [7], PEG5k-T-CB[7], PEG10k-T-CB [7], or PEG30k-T-CB [7]. All insulin formulations reduced average blood glucose to a normoglycemic level (<200 mg/dL for a mouse) following a single subcutaneous administration. Animals that received either native insulin or insulin formulated with unmodified CB[7] became hyperglycemic again approximately 2 hours following administration. […]
Male C57BL/6J, age 8 weeks, were purchased the Jackson Laboratory. […] Mice were allowed to eat ad libitum and glucose levels were monitored by peripheral tail vein bleeds using a portable glucose meter (Accu-Chek Aviva, Roche) daily until unfasted glucose levels >400 mg/dL. […] Blood glucose readings were collected every 30 minutes using a handheld glucose meter for 6 hours following insulin injection.

native insulin = native insulin (Homo sapiens, UniProt P01308); test: Acridine orange competitive binding assay; conditions: AO 8 μM, CB[7] or PEG-T-CB[7] 6 μM, insulin 0-15 μM, in water; one-site competitive binding model; read-out: KD (binding constant toward insulin)
Description: To confirm binding of PEG-T-CB[7] to native insulin, a competitive binding assay was performed using acridine orange (AO) (FIG. 2D). In this assay, the fluorescent emission spectrum of AO is collected. The fluorescence intensity of AO increases when in complex with CB[7] relative to its emission when free in solution. As insulin is added, the CB[7]*AO complex dissociates as a result of stronger binding affinity of the B1 Phenylalanine residue to the CB[7], resulting in a reduction to the measured fluorescence intensity of AO.
Binding of PEG-T-CB[7] conjugates to insulin was assessed using the acridine orange dye displacement assay, in accordance with a previously described protocol. See, e.g., Chinai et al. Journal of the American Chemical Society 2011, 133(23): 8810-8813 Briefly, 6 μM of either unmodified CB[7] or the PEG-T-CB[7] conjugates and 8 μM acridine orange were combined with recombinant insulin (0, 1, 2, 4, 6, 8, 10, 12.5, 15 μM) in H2O. Samples were incubated overnight in light-free conditions and fluorescent spectra were collected on an Infinite® M1000 plate reader (Tecan Group, Ltd.), exciting at 485 nm and collecting the resulting fluorescent spectra from 495-650 nm. […]

[3] = reported previously (Shaikh et al. 2008); used for fitting; cited from earlier work
[4] = Glucagon stability assessment (solubility, circular dichroism); type: physicochemical
Description: Human recombinant glucagon (Sigma) was dissolved at 4 mg/ml in PBS containing 1 mM HCl. This was mixed 1:1 with 1 equivalent of CB[7]-PEG10k in PBS, or in PBS alone, for a final glucagon concentration of 2 mg/ml. Vials were left to age at room temperature for various times. Circular dichroism was performed on samples without dilution, as well as on freshly dissolved glucagon, by utilizing a […] cuvette.

[5] = general statement, glucagon alone; cited from earlier work

Which “aggregation time (tA), time after which a 10% reduction in transmittance is observed” value ([1]; alone or with 1 equivalent host, physiologic salt) does the source give for “native insulin: Recombinant human insulin, unmodified; aged or fresh as stated” here?
The value was 13.6 ± 0.2 h.

What about the “insulin aggregation in 100 hours of kinetic study” value ([1]; 100 h) of the same substance?
Its value is “Rapid aggregation”.

And the “duration of normoglycemia following administration (time until hyperglycemic again)” value [2]?
The value was “approximately 2 hours”.

For cucurbit[7]uril [CB[7]], which Kd (native insulin) is on record?
The Kd was 2.3 ± 0.2 µM.

And the “CB[7]•AO equilibrium constant Keq” value [3]?
Its value is 200000 M⁻¹.

Which results are given for “Glucagon: Human recombinant glucagon (Sigma)”?
glucagon conformation by circular dichroism after aging ([4]; aged for 24 hours at room temperature, 2 mg/ml): no appreciable glucagon in solution; glucagon solubility when dissolved alone ([4]; glucagon 2 mg/ml in PBS alone): readily precipitates from solution; typical duration of aqueous solubility of glucagon [5]: less than one hour
